# ± gives the uncertainty stated by the source.
# Test: self-splicing fitness, log relative to wild type (ln ratio); higher = more splicing; Tetrahymena group I intron in knt gene, E. coli kanamycin selection, DiMSum; sequences stand for … in CUCUCU…GGAGGGAAAAGUUAUCAGGCAUGCACCUGGUAGCUAGUCUUUAAACCAAUAGAUUGCAUCGGUUUAAAAGGCAAGACCGUCAAAUUGCGGGAAAGGGGUCAACAGCCGUUCAGUACCAAGUCUCAGGGGAAACUUUGAGAUGGCCUUGCAAAGGGUAUGGUAAUAAGCUGACGGACAUGGUCCUAACCACGCAGCCAAGUCCUAAGUCAACAGAUCUUCUGUUGAUAUGGAUGCAGUUCACAGACUAAAUGUCGGUCGGGGAAGAUGUAUUCUUCUCAUAAGAUAUAGUCGGACCUCUCCUUAAUGGGAGCUAGCGGAUGAAGUGAUGCAACACUGGAGCCGCUGGGAACUAAUUUGUAUGCGAAAGUAUAUUGAUUAGUUUUGGAGUACUCGUGGUCG
# Outline: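 A randomised library covering all eight P1ex-region intron nucleotides was built with the intron in the knt kanamycin-resistance gene on pET-22b(+) and held in E. coli BL21(DE3). Cells were grown overnight at 37°C or 30°C on LB agar, with or without 25 μg/mL kanamycin, plus 100 μg/mL carbenicillin, 50 μM IPTG and 0.2% rhamnose, and pooled colonies were amplicon-sequenced on an Illumina HiSeq 2500. DiMSum fitness is the error-weighted combination of wild-type-normalised replicate fold changes, kanamycin versus none.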
Sequence,self-splicing fitness (ln) (30 °C),self-splicing fitness (ln) (37 °C)
GCCGAGCAAUAUUACGAAUC,-1.68 ± 0.11,-0.92 ± 0.12
UAUGAGCAAUAUUACGAAAG,-2.55 ± 0.39,–
ACACAGCAAUAUUACGCUCU,-0.902 ± 0.069,-0.159 ± 0.075
UGGUAGCAAUAUUACGUGAA,-1.96 ± 0.14,-1.57 ± 0.15
ACACAGCAAUAUUACGGCUA,-0.536 ± 0.071,-0.218 ± 0.074
UGGCAGCAAUAUUACGGGUA,-0.841 ± 0.11,0.0742 ± 0.11
UGCCAGCAAUAUUACGCUCA,-0.505 ± 0.061,-0.207 ± 0.07
CUUAAGCAAUAUUACGGGGC,-3.68 ± 0.2,-2.63 ± 0.21
ACAAAGCAAUAUUACGAGAC,-3.61 ± 0.21,-2.57 ± 0.2
AGGCAGCAAUAUUACGAAGG,-1.9 ± 0.22,-1.56 ± 0.27
CGUCAGCAAUAUUACGCCGG,-1.69 ± 0.12,-1.27 ± 0.17
UUUAAGCAAUAUUACGUCAA,-1.43 ± 0.16,-0.273 ± 0.14
GUCCAGCAAUAUUACGGGCU,-2.54 ± 0.31,–
CUCAAGCAAUAUUACGUAUA,-3.98 ± 0.19,-2.59 ± 0.16
GUCUAGCAAUAUUACGGAUU,-1.75 ± 0.089,-0.0906 ± 0.085
GUGCAGCAAUAUUACGAUCG,-1.95 ± 0.12,-1.45 ± 0.1
CGACAGCAAUAUUACGACAC,-1.96 ± 0.13,-1.97 ± 0.22
CCCCAGCAAUAUUACGUCAA,-3.29 ± 0.12,-3 ± 0.16
UCAAAGCAAUAUUACGAAAA,–,-2.95 ± 0.27
GACCAGCAAUAUUACGUGCC,-0.32 ± 0.11,-0.217 ± 0.13
GGAGAGCAAUAUUACGAAGC,-3.17 ± 0.37,–
GGGGAGCAAUAUUACGCCAA,–,-0.647 ± 0.44
CUAUAGCAAUAUUACGCUAG,-3.14 ± 0.41,-2.99 ± 0.47
UAGAAGCAAUAUUACGAACA,-0.322 ± 0.16,-0.859 ± 0.17
GUAUAGCAAUAUUACGUCGG,-3.48 ± 0.26,-1.31 ± 0.22
UAGCAGCAAUAUUACGAUGC,–,-1.66 ± 0.49
UACGAGCAAUAUUACGCGCG,-1.35 ± 0.13,-1.14 ± 0.18

Sequence,self-splicing fitness (ln) (30 °C),self-splicing fitness (ln) (37 °C)
GCCGAGCAAUAUUACGCACG,-3.74 ± 0.35,-1.49 ± 0.36
UUUUAGCAAUAUUACGGAUA,-1.07 ± 0.33,-1.21 ± 0.4
AAGCAGCAAUAUUACGUAGA,-2.7 ± 0.097,-1.42 ± 0.082
GGAGAGCAAUAUUACGCCCU,-2.57 ± 0.42,–
AUGAAGCAAUAUUACGGUGC,-2.3 ± 0.15,-1.99 ± 0.19
GCCCAGCAAUAUUACGCCUA,-1.9 ± 0.18,-0.261 ± 0.12
AUACAGCAAUAUUACGUGCC,-1.16 ± 0.078,-0.689 ± 0.11
CCAUAGCAAUAUUACGAUUC,-3.64 ± 0.25,-2.89 ± 0.41
UACGAGCAAUAUUACGACGG,-2.13 ± 0.15,0.000849 ± 0.18
CCUGAGCAAUAUUACGGACA,-3.69 ± 0.28,-1.64 ± 0.18
CAGCAGCAAUAUUACGCAGG,-2.56 ± 0.12,-0.864 ± 0.11
GCUGAGCAAUAUUACGCUUC,-2.38 ± 0.15,-3.41 ± 0.39
CUUAAGCAAUAUUACGGUCG,0.0331 ± 0.082,0.0238 ± 0.093
CCAAAGCAAUAUUACGGGGG,-3.14 ± 0.18,-1.5 ± 0.16
AAUUAGCAAUAUUACGUUCU,-0.609 ± 0.077,-0.522 ± 0.099
UAUCAGCAAUAUUACGUGGA,-1.05 ± 0.098,-0.739 ± 0.099
CUCCAGCAAUAUUACGAUGC,-2.81 ± 0.25,-2.95 ± 0.32
UGGGAGCAAUAUUACGUAGC,-3.22 ± 0.27,–
GAUGAGCAAUAUUACGACUC,-1.68 ± 0.14,-0.273 ± 0.24
GCCGAGCAAUAUUACGCAUA,-3.39 ± 0.22,-1.41 ± 0.16
GAAGAGCAAUAUUACGAGAC,-3.95 ± 0.26,-1.4 ± 0.25
GAAAAGCAAUAUUACGGCUC,-0.401 ± 0.085,0.342 ± 0.12
AACUAGCAAUAUUACGAACA,-1.12 ± 0.07,-0.611 ± 0.081
AGUAAGCAAUAUUACGGUAA,-2.63 ± 0.28,-1.68 ± 0.15
UUUUAGCAAUAUUACGCGGG,-0.691 ± 0.17,-0.801 ± 0.17
AGGUAGCAAUAUUACGGUAU,-1.957 ± 0.015,-1.07 ± 0.033
GAGGAGCAAUAUUACGAGCG,-3.24 ± 0.35,-1.55 ± 0.28

Sequence,self-splicing fitness (ln) (30 °C),self-splicing fitness (ln) (37 °C)
AAAAAGCAAUAUUACGAGCC,-2.31 ± 0.2,-1.28 ± 0.27
AUCAAGCAAUAUUACGUGUU,-3.23 ± 0.11,-1.58 ± 0.097
CUCAAGCAAUAUUACGACUG,-3.48 ± 0.17,-1.7 ± 0.2
UUUGAGCAAUAUUACGAUGU,-3.05 ± 0.3,-2.34 ± 0.39
CGAAAGCAAUAUUACGCGAG,-2.88 ± 0.25,-2.26 ± 0.22
ACCAAGCAAUAUUACGUUAG,-3.94 ± 0.17,-2.83 ± 0.17
GGCCAGCAAUAUUACGCGAG,–,-2.98 ± 0.35
AGAAAGCAAUAUUACGUAUC,-3.62 ± 0.3,-2.34 ± 0.24
UUUUAGCAAUAUUACGGUAA,-1.94 ± 0.2,-0.884 ± 0.14
UUAUAGCAAUAUUACGCAGG,-1.06 ± 0.13,-0.791 ± 0.16
GCUGAGCAAUAUUACGCCUA,-1.55 ± 0.32,-0.595 ± 0.2
AGUCAGCAAUAUUACGUGGC,-2.31 ± 0.16,-2.21 ± 0.15
AAGGAGCAAUAUUACGUACA,-2.75 ± 0.33,-2.11 ± 0.21
AUACAGCAAUAUUACGCGCU,-0.631 ± 0.094,0.0173 ± 0.12
UGUCAGCAAUAUUACGCGUU,-1.16 ± 0.072,-0.631 ± 0.083
UCAAAGCAAUAUUACGCUGC,-3.2 ± 0.43,-2.49 ± 0.33
CUGUAGCAAUAUUACGCGUG,-1.41 ± 0.1,-0.0484 ± 0.12
UGUCAGCAAUAUUACGACUC,-1.12 ± 0.14,0.256 ± 0.16
GCUCAGCAAUAUUACGGGAC,-0.927 ± 0.27,-0.928 ± 0.26
UUUCAGCAAUAUUACGGACG,-0.348 ± 0.18,0.598 ± 0.23
CCCAAGCAAUAUUACGUCGG,-3.63 ± 0.12,-2.51 ± 0.14
CCACAGCAAUAUUACGCUAU,-3.61 ± 0.26,-3.12 ± 0.25
UCUUAGCAAUAUUACGAAGU,-1.65 ± 0.15,-1.42 ± 0.27
ACAUAGCAAUAUUACGGGCA,-1.57 ± 0.11,-1.76 ± 0.098
CGGAAGCAAUAUUACGGUGU,-3.77 ± 0.18,-2.1 ± 0.12

# From the supplement of paper PMC7877785
